In publication PMC2584968 (Nature, 2007):

Molecular target: HIV-1 gp120 fragment OD1 (HIV-1)
Experiment: SPR

B1: broadly neutralizing antibody b12 (antibody, V domains shown)
VH: QVQLVQSGAEVKKPGASVKVSCQASGYRFSNFVIHWVRQAPGQRFEWMGWINPYNGNKEFSAKFQDRVTFTADTSANTAYMELRSLRSADTAVYYCARVGPYSWDDSPQDNYYMDVWGKGTTVIVSS
VL: EIVLTQSPGTLSLSPGERATFSCRSSHSIRSRRVAWYQHKPGQAPRLVIHGVSNRASGISDRFSGSGSGTDFTLTITRVEPEDFALYYCQVYGASSYTFGQGTKLERK
  fold faster dissociation rate than on HXBc2 core gp120: ~15 fold
